The values that follow come from paper PMC5368644.

Assay in all cases: NMR
Holding throughout (conditions): 25 °C; Not stated for the titration samples (structure samples contained 45 mM NaCl, 1 mM EDTA, 1 mM EGTA); Phosphate buffer for pH 7.3 to 5.9; acetate buffer for pH 5.5 to 3.5; pH changed by buffer exchange; concentrations not given; Ca2+-free, ligand-free, folded (the protein starts to unfold at pH 3 or below); ~0.5 mM protein

The target in series [1] is Asp109 (UniProt position 136, FTVQLDDYLNG).
Series [2] has as its target Glu156 (UniProt position 183, HVVPNEVVVQR).
Series [3] deals with His86 (UniProt position 113, LQYDLHYWLGN).
Series [4] deals with Glu97 (UniProt position 124, ECSQDESGAAA).
Series [5] concerns the target Glu92 (UniProt position 119, YWLGNECSQDE).
For series [6], the target named is His151 (UniProt position 178, ASGFKHVVPNE).
The target of series [7] is Asp110 (UniProt position 137, TVQLDDYLNGR).
Series [8] concerns the target Glu121 (UniProt position 148, AVQHREVQGFE).
The target in series [9] is His29 (UniProt position 56, SMVVEHPEFLK).
For series [10], the target named is Asp66 (UniProt position 93, DFFTGDAYVIL).
Series [11] addresses Glu47 (UniProt position 74, QIWRVEKFDLV).
Series [12] deals with Asp61 (UniProt position 88, TNLYGDFFTGD).
Series [13] has as its target Glu38 (UniProt position 65, LKAGKEPGLQI).
Series [14] addresses Asp84 (UniProt position 111, GNLQYDLHYWL).
For series [15], the target named is Asp96 (UniProt position 123, NECSQDESGAA).
Series [16] concerns the target Asp50 (UniProt position 77, RVEKFDLVPVP).
In series [17] the target is Glu126 (UniProt position 153, EVQGFESATFL).
Series [18] addresses His119 (UniProt position 146, GRAVQHREVQG).

For the substance “Gelsolin fragment G1+ (domain 1 plus G1-G2 linker) (Homo sapiens (inferred; not stated explicitly in the article))”, the pKa in series [1] was 5.5; in [2] it was 3.8; in series [3], 4.2; in series [4] it was less than 3.5; in series [5] it was 4.3; in series [6] it was 6.2. Also, the pKa in series [7] is 4.3; in [8], less than 3.5; in series [9] it was 5.9; in series [10], 3.9; in series [11], less than 3.5; in series [12], 4.5. Also, the pKa in series [13] is 4.1; in series [14], less than 3.5; in series [15], less than 3.5; in series [16], 4.8; in series [17] it was less than 3.5; in [18], 4.3.
